Assay results published in patent publication EP2158221B1 (MacroGenics, Inc., dated 2018).

Columns and labels:
sCD32B-Ig = target: T1, sCD32B-Ig (human, UniProt P31994 43-217); assay: sandwich ELISA, CD32B coat, HRP-CD16 probe
T1 construct: extracellular domain; also called CD32B (plate coat of the sandwich ELISA); not shown: Ig part not described
T1 sequence (looked up): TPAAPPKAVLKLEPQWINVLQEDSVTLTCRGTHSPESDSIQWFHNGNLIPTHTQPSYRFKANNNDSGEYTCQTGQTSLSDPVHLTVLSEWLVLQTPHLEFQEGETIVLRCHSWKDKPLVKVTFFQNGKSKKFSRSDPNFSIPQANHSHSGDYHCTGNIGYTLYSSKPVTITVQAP

soluble CD16A (sCD16A) = target: T2, soluble CD16A (sCD16A) (human, UniProt P08637 17-208); assay: sandwich ELISA, CD32B coat, HRP-CD16 probe
T2 construct: extracellular domain; also called sCD16A-Biotin; HRP conjugated sCD16A
T2 sequence (P08637 17-208): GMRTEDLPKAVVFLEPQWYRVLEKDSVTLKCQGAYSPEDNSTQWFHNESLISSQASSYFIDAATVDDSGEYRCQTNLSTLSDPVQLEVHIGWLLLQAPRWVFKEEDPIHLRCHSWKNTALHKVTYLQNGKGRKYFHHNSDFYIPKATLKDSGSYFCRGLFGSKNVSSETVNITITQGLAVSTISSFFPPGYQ

Binder	binding result (sCD32B-Ig)	binding result (soluble CD16A (sCD16A))
diabody of constructs 9 and 1 (pMGX0719 + pMGX0669) (bispecific antibody, human IgG1, hinge/Fc at the N-terminus of the heavier chain; about 150 kDa species on Western blot; also called constructs 1 and 9; constructs 9+1) chain 1: not shown chain 2: EIVLTQSPDFQSVTPKEKVTFTCRTSQSIGTNIHWYQQKPDQSPKLLIKEVSESISGVPSRFSGSGSGTDFTLTINSLEAEDAATYYCQQSNTWPFTFGGGTKVEIKGGGSGGGGQVTLRESGPALVKPTQTLTLTCTFSGFSLSTSGMGVGWIRQPPGKALEWLAHIWWDDDKRYNPALKSRLTISKDTSKNQVVLTMTNMDPVDTATYYCAQINPAWFAYWGQGTLVTVSSLGGC	binds	binds
diabody of constructs 10 and 1 (pMGX0718 + pMGX0669) (bispecific antibody, Fc at the N-terminus of the heavier chain; at least two species of about 75 and 100 kDa on Western blot; also called constructs 1 and 10; constructs 10+1; copies: 2 + 2) chain 1: not shown chain 2: EIVLTQSPDFQSVTPKEKVTFTCRTSQSIGTNIHWYQQKPDQSPKLLIKEVSESISGVPSRFSGSGSGTDFTLTINSLEAEDAATYYCQQSNTWPFTFGGGTKVEIKGGGSGGGGQVTLRESGPALVKPTQTLTLTCTFSGFSLSTSGMGVGWIRQPPGKALEWLAHIWWDDDKRYNPALKSRLTISKDTSKNQVVLTMTNMDPVDTATYYCAQINPAWFAYWGQGTLVTVSSLGGC	binds	binds
